Assay results published in US20250304628A1.

Assays:
IgG [1] = assay: dynamic binding capacity at 10% breakthrough; ligand coupled to agarose medium; after 24 h of 1 M NaOH treatment, relative to initial capacity
IgG [2] = assay: dynamic binding capacity at 10% breakthrough; ligand coupled to agarose medium; after 24 h of 1 M NaOH treatment (2 h cycles)
IgG [3] = assay: dynamic binding capacity at 10% breakthrough; ligand coupled to agarose medium, IgG 1 mg/ml loaded, before alkali treatment
IgG [4] = assay: SPR, Biacore 4000; IgG immobilised on CM5 chip, mutant as analyte

Z(E15D)4 (designed binder)
Remaining IgG capacity after 24 hours (% of initial) (IgG [1]): 14.9%
Remaining IgG capacity after 24 hours (dynamic binding capacity at 10% breakthrough) (IgG [2]): 21.6 mg/mL
Initial IgG capability (dynamic binding capacity at 10% breakthrough) (IgG [3]): 145 mg/mL
Kd (IgG [4]): 1.13 nM

Z(E15F)4 (designed binder)
Remaining IgG capacity after 24 hours (% of initial) (IgG [1]): 22.8%
Remaining IgG capacity after 24 hours (dynamic binding capacity at 10% breakthrough) (IgG [2]): 35.5 mg/mL
Initial IgG capability (dynamic binding capacity at 10% breakthrough) (IgG [3]): 155 mg/mL
Kd (IgG [4]): 3.99 nM

Z(E15I)4 (designed binder)
Remaining IgG capacity after 24 hours (% of initial) (IgG [1]): 17.7%
Remaining IgG capacity after 24 hours (dynamic binding capacity at 10% breakthrough) (IgG [2]): 33 mg/mL
Initial IgG capability (dynamic binding capacity at 10% breakthrough) (IgG [3]): 187 mg/mL
Kd (IgG [4]): 2.55 nM

Z(E15L)4 (designed binder)
Remaining IgG capacity after 24 hours (% of initial) (IgG [1]): 40.1%
Remaining IgG capacity after 24 hours (dynamic binding capacity at 10% breakthrough) (IgG [2]): 63 mg/mL
Initial IgG capability (dynamic binding capacity at 10% breakthrough) (IgG [3]): 157 mg/mL
Kd (IgG [4]): 1.25 nM

Z(E15S)4 (designed binder)
Remaining IgG capacity after 24 hours (% of initial) (IgG [1]): 43.6%
Remaining IgG capacity after 24 hours (dynamic binding capacity at 10% breakthrough) (IgG [2]): 72 mg/mL
Initial IgG capability (dynamic binding capacity at 10% breakthrough) (IgG [3]): 165 mg/mL
Kd (IgG [4]): 1.78 nM

Z(E15T)4 (designed binder)
Remaining IgG capacity after 24 hours (% of initial) (IgG [1]): 25.9%
Remaining IgG capacity after 24 hours (dynamic binding capacity at 10% breakthrough) (IgG [2]): 45.5 mg/mL
Initial IgG capability (dynamic binding capacity at 10% breakthrough) (IgG [3]): 176 mg/mL
Kd (IgG [4]): 4.71 nM

Z(E15V)4 (designed binder)
Remaining IgG capacity after 24 hours (% of initial) (IgG [1]): 24.9%
Remaining IgG capacity after 24 hours (dynamic binding capacity at 10% breakthrough) (IgG [2]): 33.2 mg/mL
Initial IgG capability (dynamic binding capacity at 10% breakthrough) (IgG [3]): 133 mg/mL
Kd (IgG [4]): 2.66 nM

Z(E15W)4 (designed binder)
Remaining IgG capacity after 24 hours (% of initial) (IgG [1]): 23.2%
Remaining IgG capacity after 24 hours (dynamic binding capacity at 10% breakthrough) (IgG [2]): 38.1 mg/mL
Initial IgG capability (dynamic binding capacity at 10% breakthrough) (IgG [3]): 165 mg/mL
Kd (IgG [4]): 1.54 nM

Z(E15Y)4 (designed binder)
Remaining IgG capacity after 24 hours (% of initial) (IgG [1]): 28%
Remaining IgG capacity after 24 hours (dynamic binding capacity at 10% breakthrough) (IgG [2]): 48.6 mg/mL
Initial IgG capability (dynamic binding capacity at 10% breakthrough) (IgG [3]): 174 mg/mL
Kd (IgG [4]): 2.92 nM

Z(N3L, N6E, Q9F, E15L, N23I)4 (designed binder)
Remaining IgG capacity after 24 hours (% of initial) (IgG [1]): 44%
Remaining IgG capacity after 24 hours (dynamic binding capacity at 10% breakthrough) (IgG [2]): 65 mg/mL
Initial IgG capability (dynamic binding capacity at 10% breakthrough) (IgG [3]): 148 mg/mL

Z(N3L, N6E, Q9I, E15I, N23I)4 (designed binder)
Remaining IgG capacity after 24 hours (% of initial) (IgG [1]): 35.4%
Remaining IgG capacity after 24 hours (dynamic binding capacity at 10% breakthrough) (IgG [2]): 57.2 mg/mL
Initial IgG capability (dynamic binding capacity at 10% breakthrough) (IgG [3]): 161 mg/mL
Kd (IgG [4]): 2.57 nM

Z(N3L, N6E, Q9I, E15I, N23I)6 (designed binder)
Remaining IgG capacity after 24 hours (% of initial) (IgG [1]): 58.8%
Remaining IgG capacity after 24 hours (dynamic binding capacity at 10% breakthrough) (IgG [2]): 87.8 mg/mL
Initial IgG capability (dynamic binding capacity at 10% breakthrough) (IgG [3]): 149 mg/mL

Z(N3L, N6L, Q9F, E15I, N23V)4 (designed binder)
Remaining IgG capacity after 24 hours (% of initial) (IgG [1]): 45.2%
Remaining IgG capacity after 24 hours (dynamic binding capacity at 10% breakthrough) (IgG [2]): 68.4 mg/mL
Initial IgG capability (dynamic binding capacity at 10% breakthrough) (IgG [3]): 151 mg/mL

Z(N3L, N6L, Q9F, E15I, N23V)6 (designed binder)
Remaining IgG capacity after 24 hours (% of initial) (IgG [1]): 63.9%
Remaining IgG capacity after 24 hours (dynamic binding capacity at 10% breakthrough) (IgG [2]): 112 mg/mL
Initial IgG capability (dynamic binding capacity at 10% breakthrough) (IgG [3]): 175 mg/mL

Z(N3L, N6L, Q9I, E15L)4 (designed binder)
Remaining IgG capacity after 24 hours (% of initial) (IgG [1]): 39.2%
Remaining IgG capacity after 24 hours (dynamic binding capacity at 10% breakthrough) (IgG [2]): 70.2 mg/mL
Initial IgG capability (dynamic binding capacity at 10% breakthrough) (IgG [3]): 179 mg/mL
Kd (IgG [4]): 2.09 nM

Z(N3L, N6L, Q9I, E15L, N23V)4 (designed binder)
Remaining IgG capacity after 24 hours (% of initial) (IgG [1]): 28.5%
Remaining IgG capacity after 24 hours (dynamic binding capacity at 10% breakthrough) (IgG [2]): 45.3 mg/mL
Initial IgG capability (dynamic binding capacity at 10% breakthrough) (IgG [3]): 159 mg/mL
Kd (IgG [4]): 2.33 nM

Z(N3L, Q9I, E15L, N23V)4 (designed binder)
Remaining IgG capacity after 24 hours (% of initial) (IgG [1]): 25.4%
Remaining IgG capacity after 24 hours (dynamic binding capacity at 10% breakthrough) (IgG [2]): 42.1 mg/mL
Initial IgG capability (dynamic binding capacity at 10% breakthrough) (IgG [3]): 166 mg/mL
Kd (IgG [4]): 4.41 nM

Z(N3V, N6E, Q9I, E15L)4 (designed binder)
Remaining IgG capacity after 24 hours (% of initial) (IgG [1]): 62.2%
Remaining IgG capacity after 24 hours (dynamic binding capacity at 10% breakthrough) (IgG [2]): 110 mg/mL
Initial IgG capability (dynamic binding capacity at 10% breakthrough) (IgG [3]): 177 mg/mL
Kd (IgG [4]): 2.72 nM

Z(N3V, N6L, Q9F, E15V, N23Y)4 (designed binder)
Remaining IgG capacity after 24 hours (% of initial) (IgG [1]): 40.1%
Remaining IgG capacity after 24 hours (dynamic binding capacity at 10% breakthrough) (IgG [2]): 67.9 mg/mL
Initial IgG capability (dynamic binding capacity at 10% breakthrough) (IgG [3]): 169 mg/mL
Kd (IgG [4]): 2.76 nM

Z(N3V, N6L, Q9I, E15V, N23Y)6 (designed binder)
Remaining IgG capacity after 24 hours (% of initial) (IgG [1]): 54.2%
Remaining IgG capacity after 24 hours (dynamic binding capacity at 10% breakthrough) (IgG [2]): 103 mg/mL
Initial IgG capability (dynamic binding capacity at 10% breakthrough) (IgG [3]): 190 mg/mL

Z(N6L, Q9F, E15I, N23V)4 (designed binder)
Remaining IgG capacity after 24 hours (% of initial) (IgG [1]): 36.7%
Remaining IgG capacity after 24 hours (dynamic binding capacity at 10% breakthrough) (IgG [2]): 68.2 mg/mL
Initial IgG capability (dynamic binding capacity at 10% breakthrough) (IgG [3]): 186 mg/mL
Kd (IgG [4]): 3.98 nM

Z(Q9F)4 (designed binder)
Remaining IgG capacity after 24 hours (% of initial) (IgG [1]): 20.4%
Remaining IgG capacity after 24 hours (dynamic binding capacity at 10% breakthrough) (IgG [2]): 37.2 mg/mL
Initial IgG capability (dynamic binding capacity at 10% breakthrough) (IgG [3]): 182 mg/mL
Kd (IgG [4]): 1.74 nM

Z(Q9I)4 (designed binder)
Remaining IgG capacity after 24 hours (% of initial) (IgG [1]): 27.6%
Remaining IgG capacity after 24 hours (dynamic binding capacity at 10% breakthrough) (IgG [2]): 39.6 mg/mL
Initial IgG capability (dynamic binding capacity at 10% breakthrough) (IgG [3]): 143 mg/mL

Z(Q9M)4 (designed binder)
Remaining IgG capacity after 24 hours (% of initial) (IgG [1]): 31.5%
Remaining IgG capacity after 24 hours (dynamic binding capacity at 10% breakthrough) (IgG [2]): 42.6 mg/mL
Initial IgG capability (dynamic binding capacity at 10% breakthrough) (IgG [3]): 136 mg/mL
Kd (IgG [4]): 2.46 nM
